{"source": "paper doi:10.1101/457440v1", "proteins": {"B1": {"name": "AtCHI-1 (Arabidopsis thaliana) (protein)", "chain": "MSSSNACASPSPFPAVTKLHVDSVTFVPSVKSPASSNPLFLGGAGVRGLDIQGKFVIFTVIGVYLEGNAVPSLSVKWKGKTTEELTESIPFFREIVTGAFEKFIKVTMKLPLTGQQYSEKVTENCVAIWKQLGLYTDCEAKAVEKFLEIFKEETFPPGSSILFALSPTGSLTVAFSKDDSIPETGIAVIENKLLAEAVLESIIGKNGVSPGTRLSVAERLSQLMMKNKDEKEVSDHSVEEKLAKEN"}, "B2": {"name": "AtCHI-1 (Arabidopsis thaliana; V106G) (protein)", "chain": "B1 chain with V106G"}, "B3": {"name": "MsCHI-2 (Medicago sativa; G95V) (protein)", "chain": "MAASITAITVENLEYPAVVTSPVTGKSYFLGGAGERGLTIEGNFIKFTAIGVYLEDIAVASLAAKWKGKSSEELLETLDFYRDIISGPFEKLIRVSKIRELSGPEYSRKVMENCVAHLKSVGTYGDAEAEAMQKFAEAFKPVNFPPGASVFYRQSPDGILGLSFSPDTSIPEKEAALIENKAVSSAVLETMIGEHAVSPDLKRCLAARLPALLNEGAFKIGN"}, "B4": {"name": "MsCHI-2 (Medicago sativa; R36K) (protein)", "chain": "B3 chain with R36K, V95G"}, "B5": {"name": "MsCHI-2 (Medicago sativa; K97M) (protein)", "chain": "B3 chain with V95G, K97M"}, "B6": {"name": "MsCHI-2 (Medicago sativa; G95T) (protein)", "chain": "B3 chain with V95T"}, "B7": {"name": "MsCHI-2 (Medicago sativa) (protein)", "chain": "B3 chain with V95G"}}, "key": {"[1]": {"substrate": "O=C(/C=C/c1ccc(O)cc1)c1c(O)cc(O)cc1O", "test": "purified protein"}, "[2]": {"substrate": "O=C(/C=C/c1ccc(O)cc1)c1ccc(O)cc1O", "test": "purified protein"}, "[3]": {"substrate": "O=C(/C=C/c1ccc(O)cc1)c1ccc(O)cc1O", "test": "Michaelis-Menten kinetics of cyclization", "assay_type": "biochemical, Medicago sativa"}}, "note": "Residue numbers refer to the chain shown, from its start. In names and notes the source's numbering stands."}
{"protein": "B1", "values": [{"measurement": "Km", "setting": "[1]", "result": "62 ± 9", "unit": "µM"}, {"measurement": "kcat", "setting": "[1]", "result": "379 ± 35", "unit": "min⁻¹"}, {"measurement": "Km", "setting": "[2]", "result": "16.8 ± 3.5", "unit": "µM"}, {"measurement": "kcat", "setting": "[2]", "result": "0.064 ± 0.005", "unit": "min⁻¹"}]}
{"protein": "B2", "values": [{"measurement": "Km", "setting": "[1]", "result": "19.0 ± 0.5", "unit": "µM"}, {"measurement": "kcat", "setting": "[1]", "result": "332 ± 34", "unit": "min⁻¹"}]}
{"protein": "B3", "values": [{"measurement": "Km", "setting": "[1]", "result": "5.3 ± 2.6", "unit": "µM"}, {"measurement": "kcat", "setting": "[1]", "result": "512 ± 26", "unit": "min⁻¹"}, {"measurement": "Km", "setting": "[2]", "result": "65 ± 10", "unit": "µM"}, {"measurement": "kcat", "setting": "[2]", "result": "2.16 ± 0.02", "unit": "min⁻¹"}]}
{"protein": "B4", "values": [{"measurement": "Km", "setting": "[1]", "result": "98.3 ± 1.5", "unit": "µM"}, {"measurement": "kcat", "setting": "[1]", "result": "25.4 ± 1.1", "unit": "min⁻¹"}]}
{"protein": "B5", "values": [{"measurement": "Km", "setting": "[1]", "result": "14.5 ± 4.2", "unit": "µM"}, {"measurement": "kcat", "setting": "[1]", "result": "1,300 ± 154 min-1"}, {"measurement": "Km", "setting": "[2]", "result": "25.7 ± 2.1", "unit": "µM"}, {"measurement": "kcat", "setting": "[2]", "result": "658 ± 11", "unit": "min⁻¹"}]}
{"protein": "B6", "values": [{"measurement": "Km", "setting": "[3]", "result": "117 ± 12", "unit": "µM"}, {"measurement": "kcat", "setting": "[3]", "result": "23.3 ± 1.7", "unit": "min⁻¹"}]}
{"protein": "B7", "values": [{"measurement": "Km", "setting": "[1]", "result": "112 ± 28", "unit": "µM"}, {"measurement": "kcat", "setting": "[1]", "result": "11,180 ± 1,380 min-1"}, {"measurement": "Km", "setting": "[2]", "result": "8.4 ± 2.0", "unit": "µM"}, {"measurement": "kcat", "setting": "[2]", "result": "2,250 ± 165 min-1"}]}
